The record followed here is patent US12351610B2, “Interferon regulatory factor 5 inhibitors and uses thereof” (THE FEINSTEIN INSTITUTES FOR MEDICAL RESEARCH, priority 2019, dated 2025).

“Also recorded” adds a separate entry of the source.

For experiment [1], the system named is IRF5 nuclear translocation in B cells of PBMC from healthy donors. As to the kind of experiment: R848-induced IRF5 nuclear translocation in PBMC B cells (CD19+), imaging flow cytometry. The experiment is classed as cell-based, human. To be noted: 10 μM peptide pre-incubation 1 h, then 500 ng/mL R848 for 2 h. As for the experimental part:
Imaging Flow Cytometry. Imaging flow was performed as previously described on the Amnis Imagestream (19). Briefly, PBMCs from healthy donors were isolated and treated with inhibitor for 1 h, subsequently stimulated with R848 (500 ng/mL) or 2% SLE serum for 2 h, followed by staining for CD19 and CD14. PBMC were then fixed overnight in 1% paraformaldehyde and then permeabilized (19). Permeabilized cells were blocked in 5% BSA solution and stained for intracellular IRF5 (Abcam Catalog #: ab193245) or phospho(pSer462)IRF5 and FITC-conjugated secondary antibody (Abcam Catalog #: ab6896). Prior to acquisition, DRAQS dye was added at a 1:50 dilution. PBMC from SLE patients were only surface-stained and permeabilzed for intracellular IRF5 and DRAQS staining. Murine PBMC were stained similarly for intracellular IRF5 (Abcam Catolog #: 181553) (58) and APC-conjugated secondary antibody (BioLegend). Images were acquired on the ImageStream using the 40× objective. Nuclear translocation was quantified in the Amnis IDEAS software suite. Briefly, cells were first filtered through the brightfield area vs. brightfield aspect ratio gate to exclude non-viable and doublet events. Following which a similar gate of the DRAQS nuclear channel was used. […] Finally, IRF5 nuclear translocation was determined through use of the similarity score feature contrasting IRF5 staining with DRAQS staining. […]
In general terms: A flow cytometer gives signals particle by particle.

The target in experiment [2] is T1, human full-length recombinant IRF5 variant 5 (isoform V5) (Homo sapiens, UniProt Q13568).
T1 construct: Full-length recombinant IRF5 protein (ab173024, Abcam) was immobilized onto a CMS series chip; purchased Abcam ab173024
T1 sequence (Q13568 1-514 isoform Q13568-2): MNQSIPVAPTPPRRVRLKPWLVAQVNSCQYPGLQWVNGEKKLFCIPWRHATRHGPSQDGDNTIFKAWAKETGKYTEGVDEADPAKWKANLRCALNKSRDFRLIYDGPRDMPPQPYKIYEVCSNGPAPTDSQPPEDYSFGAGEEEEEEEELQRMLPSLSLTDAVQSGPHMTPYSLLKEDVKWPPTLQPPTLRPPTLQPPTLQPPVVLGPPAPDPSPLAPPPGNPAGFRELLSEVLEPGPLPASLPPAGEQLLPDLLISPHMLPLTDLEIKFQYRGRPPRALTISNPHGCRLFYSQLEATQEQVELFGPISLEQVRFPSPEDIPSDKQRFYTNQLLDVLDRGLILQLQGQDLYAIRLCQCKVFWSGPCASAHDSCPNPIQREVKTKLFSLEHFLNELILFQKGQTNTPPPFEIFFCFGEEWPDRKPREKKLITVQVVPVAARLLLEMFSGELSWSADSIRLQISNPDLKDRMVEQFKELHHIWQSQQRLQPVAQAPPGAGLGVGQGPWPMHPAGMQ
As to the kind of experiment: Surface plasmon resonance (SPR) binding of peptides to immobilized full-length recombinant IRF5. To be noted: peptides 1 μM, IRF5 immobilized on chip, 25° C. As for the experimental part: Surface Plasmon Resonance (SPR) Analysis. The Biacore T200 (GE Healthcare, UK) was used for real-time binding interaction studies. Full-length recombinant IRF5 protein (ab173024, Abcam) was immobilized onto a CMS series chip (GE Healthcare) by diluting to a concentration of 20 μg/mL in 10 mM acetate buffer (pH=5.0). A 1:1 mixture of N-hyrdoxysuccinimide and N-ethyl-N-(dimethyaminopropyl)carbodiimide was used to activate 2 flow-cells of the CMS chip. […] The sample flow-cell was injected with the diluted IRF5 at a flow rate of 10 μL/min by manual injection. The IRF5 injection was stopped when the SPR reached ˜490 RU. For binding of peptides to IRF5, the analytes (peptides) were diluted to 1 μM in 1×PBS+0.05% Tween20 buffer, filtered (0.22 μm) and injected over the IRF5 immobilized chip at a flow rate of 30 μL/min for 60 s at 25° C. with a dissociation time set for 1 min. Binding experiments were conducted in 1×PBS+0.05% Tween20 as the running buffer; at least 3 independent experiments were performed.
Peptides (1 μM) were tested for their ability to directly interact with human full-length recombinant IRF5 variant 5 (isoform V5) by surface plasmon resonance (SPR) analysis. DWEYS (SEQ ID NO:23) peptide served as a non-targeted control and CPP1 (SEQ ID NO:4) as a control for the cell permeable sequence. […] A shared similarity between N5-1 (SEQ ID NO:20) and N5-2 (SEQ ID NO:17) is their relatively stronger positive charge, as compared to the others (Table 1).
Human IRF5 contains two nuclear localization signals (NLS), one in the N-terminus and one in the C-terminus (27). N5-1 (SEQ ID NO:20) corresponds to the N-terminal NLS (PRRVRLK) (SEQ ID NO:24). To test whether any NLS is capable of binding to IRF5, we generated C5-2 (SEQ ID NO:22) that corresponds to the C-terminal NLS of IRF5 (PREKKLI) (SEQ ID NO:25) and examined binding by SPR.
For orientation: In SPR one partner is held on a chip, and binding of the other changes the refractive index at the surface.

Experiment [3] relates to IRF5 nuclear translocation in monocytes (Mo) of PBMC from healthy donors. As to the kind of experiment: R848-induced IRF5 nuclear translocation in PBMC monocytes (CD14+), imaging flow cytometry. The settings on record: 10 μM peptide pre-incubation 1 h, then 500 ng/mL R848 for 2 h. The experiment is classed as cell-based, human. The protocol: Imaging Flow Cytometry. Imaging flow was performed as previously described on the Amnis Imagestream (19). Briefly, PBMCs from healthy donors were isolated and treated with inhibitor for 1 h, subsequently stimulated with R848 (500 ng/mL) or 2% SLE serum for 2 h, followed by staining for CD19 and CD14. PBMC were then fixed overnight in 1% paraformaldehyde and then permeabilized (19). Permeabilized cells were blocked in 5% BSA solution and stained for intracellular IRF5 (Abcam Catalog #: ab193245) or phospho(pSer462)IRF5 and FITC-conjugated secondary antibody (Abcam Catalog #: ab6896). Prior to acquisition, DRAQS dye was added at a 1:50 dilution. PBMC from SLE patients were only surface-stained and permeabilzed for intracellular IRF5 and DRAQS staining. Murine PBMC were stained similarly for intracellular IRF5 (Abcam Catolog #: 181553) (58) and APC-conjugated secondary antibody (BioLegend). Images were acquired on the ImageStream using the 40× objective. Nuclear translocation was quantified in the Amnis IDEAS software suite. Briefly, cells were first filtered through the brightfield area vs. brightfield aspect ratio gate to exclude non-viable and doublet events. Following which a similar gate of the DRAQS nuclear channel was used. This added an extra measure of stringency for cell viability. Images were gated on either CD14^+IRF5^+, CD19^+IRF5^+, or CD123^+BDCA2^+IRF5^+ events, followed by gating on images with a Gradient RMS of greater than 20 on the DRAQS channel. This was done to select images with a high level of clarity. Finally, IRF5 nuclear translocation was determined through use of the similarity score feature contrasting IRF5 staining with DRAQS staining. A similarity score≥2 was considered a translocation event.
Peptide mimetics inhibit TLR7-induced IRF5 nuclear translocation. We next sought to determine whether in vitro binding data would translate into IRF5 cellular inhibition. IRF5 is a key downstream mediator of TLR7-induced cytokine expression and TLR7 signaling has been implicated in SLE pathogenesis (2,44-47). We examined the ability of IRF5 peptide mimetics to inhibit IRF5 nuclear translocation following stimulation of PBMC with R848. […] For the initial screening, isolated PBMC from healthy donors were pre-incubated in the presence of mock (PBS), or 10 μM CPP1 (SEQ ID NO:4), N5-1 (SEQ ID NO:20), N5-2 (SEQ ID NO:17), N5-3 (SEQ ID NO:18) or C5-2 (SEQ ID NO:22) inhibitor for 1 h followed by stimulation with 500 ng/mL of R848 for 2 h. Cells were surface-stained with anti-CD14 (monocytes or Mo) and anti-CD19 (B cells) antibodies, then permeabilized and stained for intracellular IRF5 and DRAQ5. As expected, R848 induced significant IRF5 nuclear translocation in mock-incubated Mo (2) and B cells.

As for “DRQIKIWFQNRRMKWKK (listed as Drosophila antennapedia) [CPP1, reference compound]”, the “effect on R848-induced IRF5 nuclear translocation in B cells” value in experiment [1] was “no significant effect”. Besides, the “binding affinity for IRF5” value in experiment [2] is listed as “minimal binding affinity”. Also, the “effect on R848-induced IRF5 nuclear translocation in Mo” value (shortened to “effect … in Mo”) in experiment [3] is recorded as “no significant effect”.
For “DRQIKIWFQNRRMKWKKEGVDEAD (cell penetrating and targeting sequence) [Peptide N5-5]”, the “binding affinity for IRF5” value in experiment [2] is on record as “no affinity for IRF5”.
The same measure, in the same setting: the same measure for “DRQIKIWFQNRRMKWKKGPRDMPP (cell penetrating and targeting sequence) [Peptide N5-4]”: “N5-3 (SEQ ID NO:18)>N5-4 (SEQ ID NO:19)>CPP1 (SEQ ID NO:4)”.
Regarding “DRQIKIWFQNRRMKWKKKSRDFRL (cell penetrating and targeting sequence) [Peptide N5-3]”, in experiment [2], the “binding affinity for IRF5” value was “binding to a slightly lesser extent; also recorded: directly bind to the full-length inactive IRF5 monomer”. In addition, the “effect … in Mo” value in experiment [3] was “significant reduction”.
As to “DRQIKIWFQNRRMKWKKPRRVRLK (cell penetrating and targeting sequence) [Peptide N5-1]”, the “binding affinity for IRF5” value in experiment [2] is “strongest binding affinity for IRF5; also recorded: directly bind to the full-length inactive IRF5 monomer”. For the same substance, the “effect … in Mo” value in experiment [3] is reported as “significant reduction”.
The corresponding values for “DRQIKIWFQNRRMKWKKRHATRHG (cell penetrating and targeting sequence) [Peptide N5-2]” are “strongest binding affinity for IRF5; also recorded: directly bind to the full-length inactive IRF5 monomer” and “significant reduction”.
For “DWEYS (listed as Homo sapiens) [peptide that served as a non-targeted control, reference compound]”, the “binding affinity for IRF5” value in experiment [2] was “no affinity for IRF5”.
